Molecular target: T1, CD16 on human natural killer (NK) cells (human, UniProt P08637 17-254)
T1 construct: whole, on cells
Experiment: flow cytometry on human NK cells, BiKE-containing supernatant, PE anti-V5 detection

T1 sequence (P08637 17-254): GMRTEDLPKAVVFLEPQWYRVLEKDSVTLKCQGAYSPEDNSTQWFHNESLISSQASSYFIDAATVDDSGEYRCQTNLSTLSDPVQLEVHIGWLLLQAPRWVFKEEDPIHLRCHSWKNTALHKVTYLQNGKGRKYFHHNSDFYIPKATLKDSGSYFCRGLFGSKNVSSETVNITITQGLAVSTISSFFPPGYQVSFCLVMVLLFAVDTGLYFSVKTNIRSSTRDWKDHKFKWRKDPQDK

B1: Bi-specific Natural Killer and Neutrophil engager (BiKE), CD138-CD16, secreted from MYXV-BiKE-infected cells, with C-terminal V5 tag (bispecific antibody)
chain: DIQMTQSTSSLSASLGDRVTISCSASQGINNYLNWYQQKPDGTVELLIYYTSTLQSGVPSRFSGSGSGTDYSLTISNLEPEDIGTYYCQQYSKLPRTFGGGTKLEIKGGGGSGGGGSGGGGSSQVQLQQSGSELMMPGASVKISCKATGYTFSNYWIEWVKQRPGHGLEWIGEILPGTGRTIYNEKFKGKATFTADISSNTVQMQLSSLTSEDSAVYYCARRDYYGNFYYAMDYWGQGTSVTVSSGGGGSGGGGSQVTLKESGPGILQPSQTLSLTCSFSGFSLRTSGMGVGWIRQPSGKGLEWLAHIWWDDDKRYNPALKSRLTISKDTSSNQVFLKIASVDTADTATYYCAQINPAWFAYWGQGTLVTVSAGGGGSGGGGSGGGGSDTVLTQSPASLAVSLGQRATISCKASQSVDFDGDSFMNWYQQKPGQPPKLLIYTTSNLESGIPARFSASGSGTDFTLNIHPVEEEDTATYYCQQSNEDPYTFGGGTKLEIKGKPIPNPLLGLDST
notes: Tested as secreted protein in supernatants of MYXV-BiKE-infected RK13 or Vero cells and detected through its V5 tag; Concentration was not determined; also called huBiKE; CD138-CD16 BiKE
  binding result: binds
